From paper PMC7040854
pKd: −log10 of the molar value.

Experiments:
FGFR2K^R678E (human) = assay: NMR CPMG relaxation dispersion
FGFR2K^R678G (human) = assay: NMR CPMG relaxation dispersion

| pKd (FGFR2K^R678E (human)) | pKd (FGFR2K^R678G (human)) | Substance |
| --- | --- | --- |
| 2.10 | – | FGFR2K^R678E (domain or fragment) |
| – | 1.26 | FGFR2K^R678G (domain or fragment) |
